Results reported in patent publication US20210284749A1 (ABL BIO, published 2021).
Substitutions are numbered along the chain they refer to.

Experiments:
[1] = molecular target: T1, rat BCMA (1-49) fused to the Fc region of human IgG1 (rat; human); assay: ELISA on 100 ng coated rat BCMA, antibody titrated, anti-human Fab HRP, absorbance 450 nm
T1 construct: Sino Biological Inc. 80156-R01H; also called 80156-R01H; not shown: Fc region of human IgG1
T1 chain: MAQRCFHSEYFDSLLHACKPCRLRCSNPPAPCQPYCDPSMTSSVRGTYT
Method: (§1) 100 ng of human, monkey, mouse, and rat BCMA antigens prepared in Example 1.1 were coated on the bottom of the plate, and then coated with 3% BSA to block nonspecific binding. Using the selected anti-BCMA IgG antibodies as primary antibodies, and the anti-human Fab HRP (1:20000 dilution) as a secondary antibody, ELISA assay was performed as described in Example 1.3.
(§2) Absorbancies at 450 nm measured with a microplate reader are shown in FIG. 3, and half maximal effective concentrations (EC₅₀) (nM) are shown in Table 9.

[2] = molecular target: T2, mouse BCMA (1-49) fused to the Fc region of human IgG1 (mouse; human, UniProt O88472 1-49); assay: ELISA on 100 ng coated mouse BCMA, antibody titrated, anti-human Fab HRP, absorbance 450 nm
T2 construct: Sino Biological Inc. 50076-M01H; also called 50076-M01H; not shown: Fc region of human IgG1
T2 chain: T1 chain with R4Q, R22H, P31T, M40V, R45K
Method: as §1, §2

[3] = molecular target: T3, recombinant human BCMA (ELISA antigen, construct not specified) (human, UniProt Q02223 1-54); assay: ELISA, 100 ng coated antigen
T3 construct: Fc 1-51; Fc/His 1-51; Fc 4-48) was coated in these ELISAs; also called recombinant BCMA; recombinant protein
T3 sequence: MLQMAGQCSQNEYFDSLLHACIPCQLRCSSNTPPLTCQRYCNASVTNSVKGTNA
Method: as §1, §2

[4] = molecular target: T4, human BCMA expressed on cell surface (H929, OPM-2, CHOK1-hBCMA cells) (human, UniProt Q02223 1-184); assay: FACS on OPM-2 cells, 10 µg/ml antibody, anti-human Fc-FITC; open histogram shifted right of the filled control
T4 construct: also called cell-surface BCMA; BCMA on cell surface
T4 sequence: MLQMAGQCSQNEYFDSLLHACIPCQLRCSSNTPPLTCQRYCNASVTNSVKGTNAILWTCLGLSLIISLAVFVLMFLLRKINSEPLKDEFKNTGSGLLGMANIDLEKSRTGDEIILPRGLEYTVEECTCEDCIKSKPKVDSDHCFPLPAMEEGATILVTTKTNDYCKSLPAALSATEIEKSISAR
Method: (§3) Multiple myeloma cancer cells H929 (ATCC, CRL9068™) and OPM-2 cell line (DSMZ, ACC 50), which are known to express BCMA, were prepared, and human BCMA-overexpressed CHOK1-hBCMA cell line (constructed by ABIBio) were prepared.
(§4) 10 μg/ml of the seven IgG antibodies (B58, 5A6, 5D5, 5B5, 1H, 2G, and 5G) purified in Example 1.4 was added to the prepared cells, incubated at 4° C. for 1 hour, and then washed two times with a PBS buffer solution. The anti-human Fc-FITC was diluted in 1:400, incubated at 4° C. for 1 hour, and then washed with a PBS buffer solution. These processes were repeated. In FIGS. 2A and 2B, MFI indicates mean fluorescence intensity.

[5] = molecular target: T5, human BCMA-Fc (R&D system, 193-BC-050) (human, UniProt Q02223 1-54, limits assumed); assay: competition ELISA on coated human BCMA-Fc; antibody titrated and mixed with 200 ng/ml BAFF, bound BAFF detected, absorbance 450 nm
T5 construct: Bought construct; not shown: Fc part
T5 sequence: T3 sequence
Method: Specifically, human BCMA-Fc (R&D system, 193-BC-050) was diluted using a PBS buffer, and then 100 ng of the dilution per well was coated on the ELISA plate. After the coating, the plate was emptied, and 100 μl of PBST containing 1% BSA was added to each well and incubated at 37° C. for 2 hours. The antibodies diluted at a concentration of 50 μg/ml to 0.00028 μg/ml were mixed with 10 ng/ml of APRIL protein (R&D, 5860-AP-010/CF) or 200 ng/ml of BAFF (R&D, 2149-BF-010/CF). An IgG1 antibody was used as a negative control, and a J6MO antibody was used as a comparative group.
Using anti-HA-HRP (Roche, 12013819001) or anti-His-HRP (Roche, 11965085001) as secondary antibodies, ELISA assay was performed as described in Example 1.4(1). As a comparative group, anti-BCMA monoclonal antibody J6MO (GSK) was used.

[6] = molecular target: T3, recombinant human BCMA (ELISA antigen, …); assay: ELISA on coated recombinant human BCMA, antibody titrated, HRP anti-Fab detection, absorbance 450 nm
Method: Specific binding abilities of the anti-BCMA IgG antibodies isolated in Example 1.4 to recombinant BCMA protein were analyzed by ELISA.
Using recombinant human BCMA or monkey BCMA as an antigen, and HRP-conjugated Fab polychronal antibody reagent (Pierce, 31414) as a secondary antibody, ELISA was performed as described in Example 1.3.

[7] = molecular target: T4, human BCMA expressed on cell surface …; assay: FACS on H929 cells, 10 µg/ml antibody, anti-human Fc-FITC; open histogram shifted right of the filled control
Method: as §3, §4

[8] = molecular target: T3, recombinant human BCMA (ELISA antigen, …); assay: ELISA on 100 ng coated human BCMA, antibody titrated, anti-human Fab HRP, absorbance 450 nm
Method: as §1, §2

human BCMA-Fc/His (1-51) = molecular target: T6, human BCMA-Fc/His (1-51) (human, UniProt Q02223 1-51); assay: BLI (Octet), antigen on Ni-NTA biosensor, IgG in solution
T6 construct: also called recombinant human BCMA-Fc/His; recombinant human BCMA-His (Sino Biological Inc.); not shown: Fc region; C-terminal His tag
T6 sequence: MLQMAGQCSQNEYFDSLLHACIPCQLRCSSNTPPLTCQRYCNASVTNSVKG
Method: A 96-well black microplate was mounted on a Biosensor tray case, 200 μl of 1XKB was added to each of the 8 wells, and then 8 Ni-NTA biosensors (Fortebio) were inserted thereto for hydration for 10 minutes. For antigen fixation, 5 μg/ml of recombinant human BCMA-His (Sino Biological Inc.) was diluted using 1XKB. Experiments were performed with a threshold of 0.5 to 1.0 nm, and Octet Data Acquisition 9.0 software was activated to create an Octet program template. The first step was for Baseline 1, the second step was for loading, and the threshold was fixed to 0.5 to 1.0 nm. In the third step, which was for Baseline 2, association for 5 minutes and dissociation for 20 minutes were performed. A plate temperature was fixed to 30° C., and the prepared buffer solution was placed in order into a new 96-well black microplate according to the Octet program template. 200 μl of 1XKB used as Baseline 1 and recombinant human BCMA-Fc/His which is an antigen to be loaded were diluted to 5 μg/ml, and 200 μl of the dilution was added thereto. After adding 200 μl of 1XKB used as Baseline 2, 200 μl of the antibody to be reacted with the antigen was dispensed, and the instrument was operated. After completion of the experiment, an association constant (kon), a dissociation constant (kdis), and an equilibrium dissociation constant (KD) for each antibody were analyzed and calculated with Octet Analysis 9.0 software.

B1: anti-BCMA IgG antibody B58 (antibody, V domains shown)
VH: EVQLLESGGGLVQPGGSLRLSCAASGFTFSNYDMSWVRQAPGKGLEWVSWIYPSDSSIYYADSVKGRFTISRDNSKNTLYLQMNSLRAEDTAVYYCARGPFANKYRQFDYWGQGTLVTVSS
VL: QSVLTQPPSASGTPGQRVTISCSGSSSNIGSNSVSWYQQLPGTAPKLLIYADSKRPSGVPDRFSGSKSGTSASLAISGLRSEDEADYYCGSWDYSLSGYVFGGGTKLTVL
notes: also called B58 antibody
binding result [1]: no binding (tested: about 30 µg/ml)
binding result [2]: no binding (tested: about 30 µg/ml)
EC50 [3]: 79 nM
MFI [4]: 23.6
IC50 (read off the curve) [5]: ~5 nM
EC50 (read off the curve) [6]: ~5 ng/mL
MFI [7]: 80.7
EC50 (read off the curve) [8]: ~10 ng/mL
Kd (human BCMA-Fc/His (1-51)): 0.0273 nM
koff (human BCMA-Fc/His (1-51)): 2e-05 s⁻¹
kon (human BCMA-Fc/His (1-51)): 735000 M⁻¹ s⁻¹
